This assay has as its target T1, PPE41 (M. tuberculosis), chain of the crystallized complex (M. tuberculosis, UniProt Q79FE1 1-194).
T1 sequence: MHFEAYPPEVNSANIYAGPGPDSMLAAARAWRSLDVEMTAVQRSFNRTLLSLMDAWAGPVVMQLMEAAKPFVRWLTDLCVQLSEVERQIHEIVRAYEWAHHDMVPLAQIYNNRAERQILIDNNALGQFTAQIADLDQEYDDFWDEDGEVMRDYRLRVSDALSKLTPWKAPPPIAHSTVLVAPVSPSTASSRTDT
Description: crystal structure.

B1: PE25 (M. tuberculosis), chain of the crystallized complex (natural protein)
chain: MSFVITNPEALTVAATEVRRIRDRAIQSDAQVAPMTTAVRPPAADLVSEKAATFLVEYARKYRQTIAAAAVVLEEFAHALTTGADKYATAEADNIKTFS
Take B1: the binding result is given as “binds”.
